This is an account of results in the supplement of paper PMC5998384.

Data set [1] deals with HeLa Kyoto. In words: thermal stability score vs G1/S (z-score of summed log2 fold changes over temperatures); higher = more thermally stable than in G1/S.
Data set [2] has as its system HeLa Kyoto. In words: solubility in G1/S (NP-40 vs SDS abundance) (log2 ratio); higher = more soluble. As to conditions: cell cycle stage: G1/S.
Data set [3] concerns HeLa Kyoto. In words: solubility change mitosis vs G1/S (difference of NP-40 vs SDS log2 ratios) (log2 ratio difference); higher = more soluble in mitosis.
Where [4] appears, read: cell cycle stage: early G1 (4.5 h after nocodazole release).
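For solubility change mitosis vs G1/S (difference of NP-40 vs SDS log2 ratios) in this document: synchronized HeLa Kyoto cells (double thymidine block for G1/S, nocodazole release for mitosis), protein amounts in NP-40 versus SDS lysates quantified by mass spectrometry, three biological replicates.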
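For solubility in G1/S (NP-40 vs SDS abundance) in this document: HeLa Kyoto cells arrested at G1/S by double thymidine block, proteins quantified by TMT10plex mass spectrometry in mild NP-40 versus SDS extracts, three biological replicates.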
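For thermal stability score vs G1/S (z-score of summed log2 fold changes over temperatures) in this document: synchronized HeLa Kyoto cells, proteins quantified by TMT10plex mass spectrometry, three biological replicates, mitosis taken 0.5 h after nocodazole release, G1/S directly after double thymidine block.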

For “MASDASHALEAALEQMDGIIAGTKTGADLSDGTCEPGLASPASYMNPFPVLHLIEDLRLALEMLELPQERAALLSQIPGPTAAYIKEWFEESLSQVNHHSAASNETYQERLARLEGDKESLILQVSVLTDQVEAQGEKIRDLEVCLEGHQVKLNAAEEMLQQELLSRTSLETQKLDLMTEVSELKLKLVGMEKEQREQEEKQRKAEELLQELRHLKIKVEELENERNQYEWKLKATKAEVAQLQEQVALKDAEIERLHSQLSRTAALHSESHTERDQEIQRLKMGMETLLLANEDKDRRIEELTGLLNQYRKVKEIVMVTQGPSERTLSINEEEPEGGFSKWNATNKDPEELFKQEMPPRCSSPTVGPPPLPQKSLETRAQKKLSCSLEDLRSESVDKCMDGNQPFPVLEPKDSPFLAEHKYPTLPGKLSGATPNGEAAKSPPTICQPDATGSSLLRLRDTESGWDDTAVVNDLSSTSSGTESGPQSPLTPDGKRNPKGIKKFWGKIRRTQSGNFYTDTLGMAEFRRGGLRATAGPRLSRTRDSKGQKSDANAPFAQWSTERVCAWLEDFGLAQYVIFARQWVSSGHTLLTATPQDMEKELGIKHPLHRKKLVLAVKAINTKQEEKSALLDHIWVTRWLDDIGLPQYKDQFHESRVDRRMLQYLTVNDLLFLKVTSQLHHLSIKCAIHVLHVNKFNPHCLHRRPADESNLSPSEVVQWSNHRVMEWLRSVDLAEYAPNLRGSGVHGGLIILEPRFTGDTLAMLLNIPPQKTLLRRHLTTKFNALIGPEAEQEKREKMASPAYTPLTTTAKVRPRKLGFSHFGNIRKKKFDESTDYICPMEPSDGVSDSHRVYSGYRGLSPLDAPELDGLDQVGQIS [PPFIBP2]”, the results for the thermal stability score with HeLa Kyoto [1] (setting [4]) and in the data set with HeLa Kyoto [1] (cell cycle stage: mitosis) were 0.328 and 0.498, respectively. In addition, the “solubility in G1/S (log2)” value in the data set with HeLa Kyoto [2] was 0.218. In addition, in the data set on HeLa Kyoto [3], the “solubility change mitosis (log2)” value is -0.265.
In the case of “MATAPSYPAGLPGSPGPGSPPPPGGLELQSPPPLLPQIPAPGSGVSFHIQIGLTREFVLLPAASELAHVKQLACSIVDQKFPECGFYGLYDKILLFKHDPTSANLLQLVRSSGDIQEGDLVEVVLSASATFEDFQIRPHALTVHSYRAPAFCDHCGEMLFGLVRQGLKCDGCGLNYHKRCAFSIPNNCSGARKRRLSSTSLASGHSVRLGTSESLPCTAEELSRSTTELLPRRPPSSSSSSSASSYTGRPIELDKMLLSKVKVPHTFLIHSYTRPTVCQACKKLLKGLFRQGLQCKDCKFNCHKRCATRVPNDCLGEALINGDVPMEEATDFSEADKSALMDESEDSGVIPGSHSENALHASEEEEGEGGKAQSSLGYIPLMRVVQSVRHTTRKSSTTLREGWVVHYSNKDTLRKRHYWRLDCKCITLFQNNTTNRYYKEIPLSEILTVESAQNFSLVPPGTNPHCFEIVTANATYFVGEMPGGTPGGPSGQGAEAARGWETAIRQALMPVILQDAPSAPGHAPHRQASLSISVSNSQIQENVDIATVYQIFPDEVLGSGQFGVVYGGKHRKTGRDVAVKVIDKLRFPTKQESQLRNEVAILQSLRHPGIVNLECMFETPEKVFVVMEKLHGDMLEMILSSEKGRLPERLTKFLITQILVALRHLHFKNIVHCDLKPENVLLASADPFPQVKLCDFGFARIIGEKSFRRSVVGTPAYLAPEVLLNQGYNRSLDMWSVGVIMYVSLSGTFPFNEDEDINDQIQNAAFMYPASPWSHISAGAIDLINNLLQVKMRKRYSVDKSLSHPWLQEYQTWLDLRELEGKMGERYITHESDDARWEQFAAEHPLPGSGLPTDRDLGGACPPQDHDMQGLAERISVL [PRKD2]”, the figures for the thermal stability score in the data set with HeLa Kyoto [1] (setting [4]) and in the data set with HeLa Kyoto [1] (cell cycle stage: mitosis) were 0.521 and 0.296, respectively. In the data set on HeLa Kyoto [2], the “solubility in G1/S (log2)” value was -0.115. In addition, in the data set with HeLa Kyoto [3], the “solubility change mitosis (log2)” value is -0.188.
Take “MAVEDEGLRVFQSVKIKIGEAKNLPSYPGPSKMRDCYCTVNLDQEEVFRTKIVEKSLCPFYGEDFYCEIPRSFRHLSFYIFDRDVFRRDSIIGKVAIQKEDLQKYHNRDTWFQLQHVDADSEVQGKVHLELRLSEVITDTGVVCHKLATRIVECQGLPIVNGQCDPYATVTLAGPFRSEAKKTKVKRKTNNPQFDEVFYFEVTRPCSYSKKSHFDFEEEDVDKLEIRVDLWNASNLKFGDEFLGELRIPLKVLRQSSSYEAWYFLQPRDNGSKSLKPDDLGSLRLNVVYTEDHVFSSDYYSPLRDLLLKSADVEPVSASAAHILGEVCREKQEAAVPLVRLFLHYGRVVPFISAIASAEVKRTQDPNTIFRGNSLASKCIDETMKLAGMHYLHVTLKPAIEEICQSHKPCEIDPVKLKDGENLENNMENLRQYVDRVFHAITESGVSCPTVMCDIFFSLREAAAKRFQDDPDVRYTAVSSFIFLRFFAPAILSPNLFQLTPHHTDPQTSRTLTLISKTVQTLGSLSKSKSASFKESYMATFYEFFNEQKYADAVKNFLDLISSSGRRDPKSVEQPIVLKEGFMIKRAQGRKRFGMKNFKKRWFRLTNHEFTYHKSKGDQPLYSIPIENILAVEKLEEESFKMKNMFQVIQPERALYIQANNCVEAKDWIDILTKVSQCNQKRLTVYHPSAYLSGHWLCCRAPSDSAPGCSPCTGGLPANIQLDIDGDRETERIYSLFNLYMSKLEKMQEACGSKSVYDGPEQEEYSTFVIDDPQETYKTLKQVIAGVGALEQEHAQYKRDKFKKTKYGSQEHPIGDKSFQNYIRQQSETSTHSI [RASA3]”: the thermal stability score is 0.315 in the data set with HeLa Kyoto [1] (setting [4]) and 0.353 with HeLa Kyoto [1] (cell cycle stage: mitosis). Also, the “solubility in G1/S (log2)” value with HeLa Kyoto [2] is -0.118. In the data set on HeLa Kyoto [3], the “solubility change mitosis (log2)” value was -0.19.
With “MDAATLTYDTLRFAEFEDFPETSEPVWILGRKYSIFTEKDEILSDVASRLWFTYRKNFPAIGGTGPTSDTGWGCMLRCGQMIFAQALVCRHLGRDWRWTQRKRQPDSYFSVLNAFIDRKDSYYSIHQIAQMGVGEGKSIGQWYGPNTVAQVLKKLAVFDTWSSLAVHIAMDNTVVMEEIRRLCRTSVPCAGATAFPADSDRHCNGFPAGAEVTNRPSPWRPLVLLIPLRLGLTDINEAYVETLKHCFMMPQSLGVIGGKPNSAHYFIGYVGEELIYLDPHTTQPAVEPTDGCFIPDESFHCQHPPCRMSIAELDPSIAVGFFCKTEDDFNDWCQQVKKLSLLGGALPMFELVELQPSHLACPDVLNLSLDSSDVERLERFFDSEDEDFEILSL [ATG4B]”, the thermal stability score was -0.634 in the data set on HeLa Kyoto [1] (setting [4]) and 1.02 in the data set on HeLa Kyoto [1] (cell cycle stage: mitosis). Besides, the “solubility in G1/S (log2)” value with HeLa Kyoto [2] was -0.00856. The “solubility change mitosis (log2)” value in the data set with HeLa Kyoto [3] was -0.28.
On to “MDAWVRFSAQSQARERLCRAAQYACSLLGHALQRHGASPELQKQIRQLESHLSLGRKLLRLGNSADALESAKRAVHLSDVVLRFCITVSHLNRALYFACDNVLWAGKSGLAPRVDQEKWAQRSFRYYLFSLIMNLSRDAYEIRLLMEQESSACSRRLKGSGGGVPGGSETGGLGGPGTPGGGLPQLALKLRLQVLLLARVLRGHPPLLLDVVRNACDLFIPLDKLGLWRCGPGIVGLCGLVSSILSILTLIYPWLRLKP [PEX11B]”, for which the figures for the thermal stability score in the data set with HeLa Kyoto [1] (setting [4]) and with HeLa Kyoto [1] (cell cycle stage: mitosis) were 0.106 and 0.142, respectively. Further, in the data set with HeLa Kyoto [2], the “solubility in G1/S (log2)” value is -0.779. Besides, the “solubility change mitosis (log2)” value with HeLa Kyoto [3] amounted to 0.18.
For the sequence “MDGLQASAGPLRRGRPKRRRKPQPHSGSVLALPLRSRKIRKQLRSVVSRMAALRTQTLPSENSEESRVESTADDLGDALPGGAAVAAVPDAARREPYGHLGPAELLEASPAARSLQTPSARLVPASAPPARLVEVPAAPVRVVETSALLCTAQHLAAVQSSGAPATASGPQVDNTGGEPAWDSPLRRVLAELNRIPSSRRRAARLFEWLIAPMPPDHFYRRLWEREAVLVRRQDHTYYQGLFSTADLDSMLRNEEVQFGQHLDAARYINGRRETLNPPGRALPAAAWSLYQAGCSLRLLCPQAFSTTVWQFLAVLQEQFGSMAGSNVYLTPPNSQGFAPHYDDIEAFVLQLEGRKLWRVYRPRVPTEELALTSSPNFSQDDLGEPVLQTVLEPGDLLYFPRGFIHQAECQDGVHSLHLTLSTYQRNTWGDFLEAILPLAVQAAMEENVEFRRGLPRDFMDYMGAQHSDSKDPRRTAFMEKVRVLVARLGHFAPVDAVADQRAKDFIHDSLPPVLTDRERALSVYGLPIRWEAGEPVNVGAQLTTETEVHMLQDGIARLVGEGGHLFLYYTVENSRVYHLEEPKCLEIYPQQADAMELLLGSYPEFVRVGDLPCDSVEDQLSLATTLYDKGLLLTKMPLALN [NO66]”, the thermal stability score in the data set on HeLa Kyoto [1] (setting [4]) is -0.151; in the data set on HeLa Kyoto [1] (cell cycle stage: mitosis), 0.066. Also, the “solubility in G1/S (log2)” value in the data set on HeLa Kyoto [2] was -0.879. For the same sequence, the “solubility change mitosis (log2)” value in the data set with HeLa Kyoto [3] turned out to be 0.755.
Take “MDLHRAAFKMENSSYLPNPLASPALMVLASTAEASRDASIPCQQPRPFGVPVSVDKDVHIPFTNGSYTFASMYHRQGGVPGTFANRDFPPSLLHLHPQFAPPNLDCTPISMLNHSGVGAFRPFASTEDRESYQSAFTPAKRLKNCHDTESPHLRFSDADGKEYDFGTQLPSSSPGSLKVDDTGKKIFAVSGLISDREASSSPEDRNDRCKKKAAALFDSQAPICPICQVLLRPSELQEHMEQELEQLAQLPSSKNSLLKDAMAPGTPKSLLLSASIKREGESPTASPHSSATDDLHHSDRYQTFLRVRANRQTRLNARIGKMKRRKQDEGQREGSCMAEDDAVDIEHENNNRFEEYEWCGQKRIRATTLLEGGFRGSGFIMCSGKENPDSDADLDVDGDDTLEYGKPQYTEADVIPCTGEEPGEAKEREALRGAVLNGGPPSTRITPEFSKWASDEMPSTSNGESSKQEAMQKTCKNSDIEKITEDSAVTTFEALKARVRELERQLSRGDRYKCLICMDSYSMPLTSIQCWHVHCEECWLRTLGAKKLCPQCNTITAPGDLRRIYL [RNF220]”: the thermal stability score was 0.0151 in the data set with HeLa Kyoto [1] (setting [4]) and -0.144 in the data set on HeLa Kyoto [1] (cell cycle stage: mitosis). For the same sequence, the “solubility in G1/S (log2)” value with HeLa Kyoto [2] amounted to 0.298. Besides, the “solubility change mitosis (log2)” value in the data set with HeLa Kyoto [3] is -0.0624.
